{"source": "paper PMC6625990", "about": "“Structural underpinnings of Ric8A function as a G-protein α-subunit chaperone and guanine-nucleotide exchange factor” (Nature Communications, 2019)", "key": {"Ric8A1–492 [1]": {"biological_target": "T1, Ric8A1–492 (Bos taurus, UniProt Q5E9J8)", "T1 construct": "His6 (N); made in house; host or cells: E. coli BL21(DE3)", "T1 sequence (Q5E9J8 1-492)": "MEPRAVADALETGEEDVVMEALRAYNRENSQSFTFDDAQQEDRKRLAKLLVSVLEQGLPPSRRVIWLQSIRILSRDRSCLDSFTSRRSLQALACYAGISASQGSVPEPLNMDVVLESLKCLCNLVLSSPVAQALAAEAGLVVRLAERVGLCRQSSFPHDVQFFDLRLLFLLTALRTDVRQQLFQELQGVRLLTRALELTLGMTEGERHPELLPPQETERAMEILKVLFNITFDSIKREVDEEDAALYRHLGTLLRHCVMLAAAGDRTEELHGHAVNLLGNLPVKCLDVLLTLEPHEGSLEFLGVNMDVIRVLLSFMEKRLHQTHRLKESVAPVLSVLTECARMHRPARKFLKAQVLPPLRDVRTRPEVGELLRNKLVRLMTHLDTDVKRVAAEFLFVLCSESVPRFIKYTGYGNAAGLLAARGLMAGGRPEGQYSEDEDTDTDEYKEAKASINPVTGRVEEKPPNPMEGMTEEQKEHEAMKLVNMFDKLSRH", "experiment": "DSF: thermal stabilization of Ric8A1–492 by Gαt C-terminal peptides", "type": "binding, bovine", "experimental": "Fig. 1 Interaction of Ric8A with the C-terminus of Gα. a Thermal denaturation, as determined by differential scanning fluorimetry (DSF), of 8.7 µM Ric8A1–492 in the absence (black) or presence of 50 µM Gαt340–350 (blue) or Gαt333–350 (red). RFU – relative fluorescence units. Average normalized curves are shown. The Tm values (°C) are shown as mean ± SD (n = 3). b Kinetics of association and dissociation for Ric8A1–492 and biotinylated Gαt333–350 coupled to a streptavidin biosensor as determined using BLI. Representative curves are shown.\nStabilities of Ric8A constructs with and without peptide ligands were assessed using differential scanning fluorimetry (DSF), in which an increase in fluorescence of the Sypro Orange dye is measured. Ric8A1–492, Ric8A1–452 and Ric8A1–426 in 20 mM Tris-HCl (pH 7.5) buffer containing 150 mM KCl, 5% glycerol, and 1 mM TCEP with and without peptide were used at a final concentration of 0.5 mg/ml and were supplemented with a 1000-fold dilution of Sypro Orange dye (Invitrogen). Temperature was increased at 1 °C/minute and fluorescence signals were recorded using real-time PCR (C1000 Touch thermal cycler, Bio Rad), with the cycler set to FRET mode and the excitation wavelength set at 450–490 nm and the emission wavelength at 560–580 nm."}, "Ric8A1–492 [2]": {"biological_target": "T1, Ric8A1–492", "experiment": "BLI: biotinylated Gα C-terminal peptides (Gαt333–350, Gαs363–380, C1, C2) on streptavidin biosensor binding Ric8A1–492", "parameters": "species or system bovine", "conditions": "Octet RED96, N-terminally biotinylated peptide on streptavidin biosensor, 20 mM Tris, 150 mM KCl, 5% glycerol, 1 mM TCEP, 0.5 mg/ml BSA, pH 8.0, 26 °C, 1:1 binding model, mean ± SD, read-out: association constant (ka)", "experimental": "An Octet RED96 system and streptavidin (SA)-coated biosensors (FortéBio, Menlo Park, CA) were used to measure association and dissociation kinetics for Gα peptides or the full-length Avi-tagged Gαt in relation to Ric8A1–492, Ric8A1–452, and Ric8A1–426. To obtain the Avi-tagged Gαt, Gαt was cloned into modified pET21a vector with the N-terminal His6-tag followed by the Avi tag and TEV cleavage site[59]. The Avi-tagged I340Q/N343H mutant of Gαt was prepared by QuikChange protocol. BL21(DE3) cells for expression of the Avi-tagged Gαt were grown in 2TY media supplemented with biotin (10 mg/liter), induced at OD600 of 0.6 with 50 µM IPTG and further grown overnight at 16 °C. Binding studies were performed in 20 mM Tris, 150 mM KCl, 5% glycerol, 1 mM TCEP, 0.5 mg/ml BSA, pH 8.0. […] For each concentration of Ric8A1–492, dissociation rate constant (kd) values were calculated from the corresponding dissociation phases of the curves. These kd values were used to calculate the association rate constant (ka) values from the association phases for each concentration according to the equation1 ka=kobserved-kd∕Ric8A1-492 The average ka and kd were calculated as means of the individual ka and kd values for all curves. Equilibrium dissociation constant KD was calculated as mean kd/mean ka. […]"}, "Ric8A1–492 [3]": {"biological_target": "T1, Ric8A1–492", "experiment": "SEC complex formation of Gαt C-terminal fusion proteins with Ric8A1–492", "type": "binding, bovine", "conditions": "size-exclusion chromatography elution profiles", "source_text": "The C-terminal 18-mer peptide of Gαi corresponding to Gαt333–350, was previously shown to bind to Ric8A[26]. To identify C-terminal constructs of Gα that are suitable for crystallization with Ric8A, we tested one in which the 11 C-terminal residues of Gαt were fused to the B1 domain of Streptococcal protein G (GB1-Gαt340–350) and a second in which the 24 C-terminal residues of Gαt were fused to MBP (MBP-Gαt327–350). For Ric8A, we used a construct that is truncated at the C-terminus (Ric8A1–492) and that had been reported to retain the full functionality of Ric8A[26].\nMBP-Gαt327–350 was purified by Ni-NTA chromatography followed by SEC using a HiLoad 16/600 Superdex 200 pg column equilibrated with 20 mM Tris-HCl (pH 7.5) buffer containing 100 mM NaCl, 1 mM EDTA, and 2 mM TCEP. Ric8A1–492/MBP-Gαt327–350 complexes were prepared by mixing the proteins at a 1:1.5 molar ratio in 5 mM maltose and loading the mixture onto a HiLoad 16/600 Superdex 200 pg column equilibrated with 20 mM Tris-HCl (pH 7.5) buffer containing 150 mM KCl, 5% glycerol, and 1 mM TCEP.\n75 KDa Peak 1 Peak 2 75 KDa Peak 1 Peak 2\nSupplementary Figure 1. Ric8A1-492 forms complexes with GB1-tagged Gαt340-350 andMBP-taggedGαt333-350. […] (B) Peak fractions in A analyzed by SDS-PAGE. […] (D) Peak fractions in C analyzed by SDS-PAGE. […]"}, "Ric8A": {"biological_target": "Ric8A", "conditions": "read-out: KD previously estimated; cited from earlier work"}, "Ric8A1–452": {"tested_on": "Ric8A1–452", "experiment": "DSF: thermal stabilization of Ric8A1–452 by Gαt333–350", "type": "binding, bovine", "conditions": "9.1 µM Ric8A1–452, 50 µM peptide, mean ± SD", "procedure": "Stabilities of Ric8A constructs with and without peptide ligands were assessed using differential scanning fluorimetry (DSF), in which an increase in fluorescence of the Sypro Orange dye is measured. […] Temperature was increased at 1 °C/minute and fluorescence signals were recorded using real-time PCR (C1000 Touch thermal cycler, Bio Rad), with the cycler set to FRET mode and the excitation wavelength set at 450–490 nm and the emission wavelength at 560–580 nm."}, "Ric8A1–492 [4]": {"biological_target": "T1, Ric8A1–492", "experiment": "BLI: Avi-tagged I340Q/N343H mutant of Gαt binding Ric8A1–492", "parameters": "species or system bovine", "experimental": "An Octet RED96 system and streptavidin (SA)-coated biosensors (FortéBio, Menlo Park, CA) were used to measure association and dissociation kinetics for Gα peptides or the full-length Avi-tagged Gαt in relation to Ric8A1–492, Ric8A1–452, and Ric8A1–426. To obtain the Avi-tagged Gαt, Gαt was cloned into modified pET21a vector with the N-terminal His6-tag followed by the Avi tag and TEV cleavage site[59]. The Avi-tagged I340Q/N343H mutant of Gαt was prepared by QuikChange protocol. BL21(DE3) cells for expression of the Avi-tagged Gαt were grown in 2TY media supplemented with biotin (10 mg/liter), induced at OD600 of 0.6 with 50 µM IPTG and further grown overnight at 16 °C. Binding studies were performed in 20 mM Tris, 150 mM KCl, 5% glycerol, 1 mM TCEP, 0.5 mg/ml BSA, pH 8.0. All steps were performed at 26 °C, with biosensors stirred into 0.2 ml of sample in each well at 1000 rpm, and at a data acquisition rate of 5.0 Hz. N-terminally biotinylated Gαt333–350, Gαs363–380, C1 peptide and C2 peptide were loaded onto SA sensors at a concentration of 0.05, 0.05, 0.005, and 0.01 mg/ml for 40–90 seconds. Data for association and dissociation phases of the assay were collected as shown in Fig. 1b and Supplementary Figs. 8, 11, 12, and 14. To correct for baseline drift and non-specific binding, reference sensors lacking bound Gα peptide were used in the BLI assays with Ric8A proteins at the highest concentrations. Kinetic data fitting was performed using FortéBio Data Analysis software 10.0. For each concentration of Ric8A1–492, dissociation rate constant (kd) values were calculated from the corresponding dissociation phases of the curves. These kd values were used to calculate the association rate constant (ka) values from the association phases for each concentration according to the equation1 ka=kobserved-kd∕Ric8A1-492 The average ka and kd were calculated as means of the individual ka and kd values for all curves. Equilibrium dissociation constant KD was calculated as mean kd/mean ka. Steady-state data fitting was performed using the GraphPad Prism 7 software with the equation for one site specific binding.\nSupplementary Figure 13. (A) Kinetics of association and dissociation of Ric8A1-492 and the Avi-tagged I340Q/N343H mutant of Gαt coupled to a streptavidin biosensor as determined using BLI. Representative experiment is shown. (B) The steady-state binding curve. For experiments performed in […]\n(1 picture or pasted object on this page, not shown here)"}}, "note": "Like-named read-outs stand apart in the source and are kept apart here. No end group written: not given here.", "data": [{"substance": "DAVTDIIIKENLKDCGLF [Gαt333–350]", "values": [{"measurement": "stabilization effect (Tm shift) on Ric8A1–492", "setting": "Ric8A1–492 [1]", "result": "~ 9 °C"}, {"measurement": "kon", "setting": "Ric8A1–492 [2]", "result": "130000 ± 3e+09", "unit": "M⁻¹ s⁻¹"}]}, {"substance": "GB1-Gαt340–350: 11 C-terminal residues of Gαt fused to the B1 domain of Streptococcal protein G (IKENLKDCGLF; also: fused to GB1 (B1 domain of protein G), end not given here)", "values": [{"measurement": "complex formation with Ric8A1–492 (in words)", "setting": "Ric8A1–492 [3]", "result": "formed complexes with Ric8A1–492 at nearly 1:1 stoichiometry"}]}, {"substance": "Gα C-terminus: C-terminal 18-mer peptide of Gαi previously shown to bind to Ric8A (ref 26) (DAVTDVIIKNNLKDCGLF; UniProt P63096 337-354, looked up, fragment)", "values": [{"measurement": "Kd", "setting": "Ric8A", "result": 12, "unit": "µM"}]}, {"substance": "Gαt340–350: 11-mer C-terminal peptide of Gαt (IKENLKDCGLF)", "values": [{"measurement": "Tm of Ric8A1–452 in the presence of peptide", "setting": "Ric8A1–452", "result": 55.75, "unit": "°C"}, {"measurement": "Tm of Ric8A1–492 in the presence of peptide", "setting": "Ric8A1–492 [1]; 8.7 µM Ric8A1–492, 50 µM peptide, mean ± SD (n = 3)", "result": "48.0 ± 0.3", "unit": "°C"}, {"measurement": "mean Tm of Ric8A1-492 + peptide", "setting": "Ric8A1–492 [1]; source data, mean of 3 replicates", "result": 48, "unit": "C"}, {"measurement": "Tm (C ) of Ric8A1-492 + peptide", "setting": "Ric8A1–492 [1]; source data, replicate 1", "result": 48.1, "unit": "C"}, {"measurement": "Tm (C ) of Ric8A1-492 + peptide", "setting": "Ric8A1–492 [1]; source data, replicate 2", "result": 47.69, "unit": "C"}, {"measurement": "Tm (C ) of Ric8A1-492 + peptide", "setting": "Ric8A1–492 [1]; source data, replicate 3", "result": 48.35, "unit": "C"}]}, {"substance": "I340Q/N343H: Avi-tagged double I340Q/N343H mutant of full-length Gαt", "values": [{"measurement": "Kd", "setting": "Ric8A1–492 [4]; BLI steady state, Avi-tagged mutant on streptavidin biosensor, mean ± SD, n = 3 (triplicate), read-out: KD for Ric8A1–492", "result": "2.3 ± 0.4", "unit": "µM"}, {"measurement": "Kd", "setting": "Ric8A1–492 [4]; BLI, representative experiment (Suppl. Fig. 13B), read-out: KD, steady-state binding curve", "result": 2.6, "unit": "µM"}, {"measurement": "Kd", "setting": "Ric8A1–492 [4]; Suppl Fig 13B BLI steady state, replicate 1, read-out: KD uM (stady state)", "result": 1.95, "unit": "µM"}, {"measurement": "Kd", "setting": "Ric8A1–492 [4]; Suppl Fig 13B BLI steady state, replicate 2, read-out: KD uM (stady state)", "result": 2.3, "unit": "µM"}, {"measurement": "Kd", "setting": "Ric8A1–492 [4]; Suppl Fig 13B BLI steady state, replicate 3, read-out: KD uM (stady state)", "result": 2.66, "unit": "µM"}, {"measurement": "decrease of affinity for Ric8A1–492", "setting": "Ric8A1–492 [4]; relative to Gαt", "result": "about 100 fold"}]}, {"substance": "MBP-Gαt327–350: 24 C-terminal residues of Gαt fused to MBP (NVKFVFDAVTDIIIKENLKDCGLF; not fully specified (N-terminus); also: N-terminal fusion to modified MBP via AAAH linker, His6 tag)", "values": [{"measurement": "complex formation with Ric8A1–492 (in words)", "setting": "Ric8A1–492 [3]", "result": "formed complexes with Ric8A1–492 at nearly 1:1 stoichiometry"}]}]}
